Results published in the supplement of paper PMC5998384.

Key:
HeLa Kyoto [1] = assay: solubility change mitosis vs G1/S (difference of NP-40 vs SDS log2 ratios) (log2 ratio difference); higher = more soluble in mitosis
HeLa Kyoto [2] = assay: solubility in G1/S (NP-40 vs SDS abundance) (log2 ratio); higher = more soluble; conditions: cell cycle stage: G1/S
HeLa Kyoto [3] = assay: thermal stability score vs G1/S (z-score of summed log2 fold changes over temperatures); higher = more thermally stable than in G1/S
[4] = cell cycle stage: early G1 (4.5 h after nocodazole release)
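Wherever solubility change mitosis vs G1/S (difference of NP-40 vs SDS log2 ratios) is given: synchronized HeLa Kyoto cells (double thymidine block for G1/S, nocodazole release for mitosis), protein amounts in NP-40 versus SDS lysates quantified by mass spectrometry, three biological replicates.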
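Wherever solubility in G1/S (NP-40 vs SDS abundance) is given: HeLa Kyoto cells arrested at G1/S by double thymidine block, proteins quantified by TMT10plex mass spectrometry in mild NP-40 versus SDS extracts, three biological replicates.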
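Wherever thermal stability score vs G1/S (z-score of summed log2 fold changes over temperatures) is given: synchronized HeLa Kyoto cells, proteins quantified by TMT10plex mass spectrometry, three biological replicates, mitosis taken 0.5 h after nocodazole release, G1/S directly after double thymidine block.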

THBS1, sequence (chain, as listed by the source): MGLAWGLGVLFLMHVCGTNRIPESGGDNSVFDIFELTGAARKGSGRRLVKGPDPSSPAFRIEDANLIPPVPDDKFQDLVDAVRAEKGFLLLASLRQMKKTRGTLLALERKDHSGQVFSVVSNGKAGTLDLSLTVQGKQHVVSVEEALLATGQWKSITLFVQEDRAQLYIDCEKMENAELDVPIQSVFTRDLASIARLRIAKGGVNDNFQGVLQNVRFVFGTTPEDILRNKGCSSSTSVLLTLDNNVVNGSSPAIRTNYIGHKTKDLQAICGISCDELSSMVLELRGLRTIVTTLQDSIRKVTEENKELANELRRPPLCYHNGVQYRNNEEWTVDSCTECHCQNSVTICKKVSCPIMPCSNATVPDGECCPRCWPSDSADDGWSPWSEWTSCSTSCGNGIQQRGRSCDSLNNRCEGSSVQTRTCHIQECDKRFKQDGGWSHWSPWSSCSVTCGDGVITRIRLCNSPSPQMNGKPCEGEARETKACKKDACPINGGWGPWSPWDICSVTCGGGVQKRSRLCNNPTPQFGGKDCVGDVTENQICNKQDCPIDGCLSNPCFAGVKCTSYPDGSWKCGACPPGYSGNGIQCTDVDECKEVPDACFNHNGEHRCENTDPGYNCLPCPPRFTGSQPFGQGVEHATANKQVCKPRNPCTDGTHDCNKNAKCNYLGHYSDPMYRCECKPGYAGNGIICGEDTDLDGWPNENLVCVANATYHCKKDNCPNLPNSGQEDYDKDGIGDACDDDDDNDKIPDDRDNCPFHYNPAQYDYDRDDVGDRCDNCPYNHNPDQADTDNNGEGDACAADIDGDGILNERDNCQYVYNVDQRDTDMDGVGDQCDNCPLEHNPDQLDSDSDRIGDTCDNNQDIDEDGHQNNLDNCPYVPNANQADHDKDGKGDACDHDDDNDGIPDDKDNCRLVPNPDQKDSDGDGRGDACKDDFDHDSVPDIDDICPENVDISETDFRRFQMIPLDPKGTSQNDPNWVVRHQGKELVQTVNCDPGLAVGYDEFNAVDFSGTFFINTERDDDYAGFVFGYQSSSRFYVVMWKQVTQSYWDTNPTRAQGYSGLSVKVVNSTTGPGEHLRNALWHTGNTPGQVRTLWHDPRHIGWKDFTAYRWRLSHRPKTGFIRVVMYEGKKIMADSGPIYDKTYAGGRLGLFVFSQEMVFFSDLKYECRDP

Substance: MARPGMERWRDRLALVTGASGGIGAAVARALVQQGLKVVGCARTVGNIEELAAECKSAGYPGTLIPYRCDLSNEEDILSMFSAIRSQHSGVDICINNAGLARPDTLLSGSTSGWKDMFNVNVLALSICTREAYQSMKERNVDDGHIININSMSGHRVLPLSVTHFYSATKYAVTALTEGLRQELREAQTHIRATCISPGVVETQFAFKLHDKDPEKAAATYEQMKCLKPEDVAEAVIYVLSTPAHIQIGDIQMRPTEQVT [DHRS11]
- solubility change mitosis (log2) (HeLa Kyoto [1]): -0.00389
- solubility in G1/S (log2) (HeLa Kyoto [2]): 0.514
- thermal stability score (HeLa Kyoto [3]; [4]): -0.426
- thermal stability score (HeLa Kyoto [3]; cell cycle stage: mitosis): -1.39

Substance: MQTSEREGSGPELSPSVMPEAPLESPPFPTKSPAFDLFNLVLSYKRLEIYLEPLKDAGDGVRYLLRWQMPLCSLLTCLGLNVLFLTLNEGAWYSVGALMISVPALLGYLQEVCRARLPDSELMRRKYHSVRQEDLQRGRLSRPEAVAEVKSFLIQLEAFLSRLCCTCEAAYRVLHWENPVVSSQFYGALLGTVCMLYLLPLCWVLTLLNSTLFLGNVEFFRVVSEYRASLQQRMNPKQEEHAFESPPPPDVGGKDGLMDSTPALTPTEDLTPGSVEEAEEAEPDEEFKDAIEETHLVVLEDDEGAPCPAEDELALQDNGFLSKNEVLRSKVSRLTERLRKRYPTNNFGNCTGCSATFSVLKKRRSCSNCGNSFCSRCCSFKVPKSSMGATAPEAQRETVFVCASCNQTLSK [ZFYVE27]
- solubility change mitosis (log2) (HeLa Kyoto [1]): -0.198
- solubility in G1/S (log2) (HeLa Kyoto [2]): -0.196
- thermal stability score (HeLa Kyoto [3]; [4]): 0.202
- thermal stability score (HeLa Kyoto [3]; cell cycle stage: mitosis): -1.24

Substance: THBS1
- solubility change mitosis (log2) (HeLa Kyoto [1]): 0.0125
- solubility in G1/S (log2) (HeLa Kyoto [2]): -0.19
- thermal stability score (HeLa Kyoto [3]; [4]): 4.61
- thermal stability score (HeLa Kyoto [3]; cell cycle stage: mitosis): 5.07

Substance: MSYYQRPFSPSAYSLPASLNSSIVMQHGTSLDSTDTYPQHAQSLDGTTSSSIPLYRSSEEEKRVTVIKAPHYPGIGPVDESGIPTAIRTTVDRPKDWYKTMFKQIHMVHKPDDDTDMYNTPYTYNAGLYNPPYSAQSHPAAKTQTYRPLSKSHSDNSPNAFKDASSPVPPPHVPPPVPPLRPRDRSSTEKHDWDPPDRKVDTRKFRSEPRSIFEYEPGKSSILQHERPASLYQSSIDRSLERPMSSASMASDFRKRRKSEPAVGPPRGLGDQSASRTSPGRVDLPGSSTTLTKSFTSSSPSSPSRAKGGDDSKICPSLCSYSGLNGNPSSELDYCSTYRQHLDVPRDSPRAISFKNGWQMARQNAEIWSSTEETVSPKIKSRSCDDLLNDDCDSFPDPKVKSESMGSLLCEEDSKESCPMAWGSPYVPEVRSNGRSRIRHRSARNAPGFLKMYKKMHRINRKDLMNSEVICSVKSRILQYESEQQHKDLLRAWSQCSTEEVPRDMVPTRISEFEKLIQKSKSMPNLGDDMLSPVTLEPPQNGLCPKRRFSIEYLLEEENQSGPPARGRRGCQSNALVPIHIEVTSDEQPRAHVEFSDSDQDGVVSDHSDYIHLEGSSFCSESDFDHFSFTSSESFYGSSHHHHHHHHHHHRHLISSCKGRCPASYTRFTTMLKHERARHENTEEPRRQEMDPGLSKLAFLVSPVPFRRKKNSAPKKQTEKAKCKASVFEALDSALKDICDQIKAEKKRGSLPDNSILHRLISELLPDVPERNSSLRALRRSPLHQPLHPLPPDGAIHCPPYQNDCGRMPRSASFQDVDTANSSCHHQDRGGALQDRESPRSYSSTLTDMGRSAPRERRGTPEKEKLPAKAVYDFKAQTSKELSFKKGDTVYILRKIDQNWYEGEHHGRVGIFPISYVEKLTPPEKAQPARPPPPAQPGEIGEAIAKYNFNADTNVELSLRKGDRVILLKRVDQNWYEGKIPGTNRQGIFPVSYVEVVKKNTKGAEDYPDPPIPHSYSSDRIHSLSSNKPQRPVFTHENIQGGGEPFQALYNYTPRNEDELELRESDVIDVMEKCDDGWFVGTSRRTKFFGTFPGNYVKRL [SORBS2]
- solubility change mitosis (log2) (HeLa Kyoto [1]): 0.819
- solubility in G1/S (log2) (HeLa Kyoto [2]): -0.773
- thermal stability score (HeLa Kyoto [3]; [4]): -2.13
- thermal stability score (HeLa Kyoto [3]; cell cycle stage: mitosis): 0.899

Substance: SVIL
- solubility change mitosis (log2) (HeLa Kyoto [1]): 0.176
- solubility in G1/S (log2) (HeLa Kyoto [2]): -1.65
- thermal stability score (HeLa Kyoto [3]; [4]): -0.947
- thermal stability score (HeLa Kyoto [3]; cell cycle stage: mitosis): 0.478

Substance: MPEESSPRRTPQSIPYQDLPHLVNADGQYLFCRYWKPTGTPKALIFVSHGAGEHSGRYEELARMLMGLDLLVFAHDHVGHGQSEGERMVVSDFHVFVRDVLQHVDSMQKDYPGLPVFLLGHSMGGAIAILTAAERPGHFAGMVLISPLVLANPESATTFKVLAAKVLNLVLPNLSLGPIDSSVLSRNKTEVDIYNSDPLICRAGLKVCFGIQLLNAVSRVERALPKLTVPFLLLQGSADRLCDSKGAYLLMELAKSQDKTLKIYEGAYHVLHKELPEVTNSVFHEINMWVSQRTATAGTASPP [MGLL]
- solubility change mitosis (log2) (HeLa Kyoto [1]): -0.16
- solubility in G1/S (log2) (HeLa Kyoto [2]): 0.347
- thermal stability score (HeLa Kyoto [3]; [4]): 0.0154
- thermal stability score (HeLa Kyoto [3]; cell cycle stage: mitosis): -0.539

Substance: MASPRASRWPPPLLLLLLPLLLLPPAAPGTRDPPPSPARRALSLAPLAGAGLELQLERRPEREPPPTPPRERRGPATPGPSYRAPEPGAATQRGPSGRAPRGGSADAAWKHWPESNTEAHVENITFYQNQEDFSTVSSKEGVMVQTSGKSHAASDAPENLTLLAETADARGRSGSSSRTNFTILPVGYSLEIATALTSQSGNLASESLHLPSSSSEFDERIAAFQTKSGTASEMGTERAMGLSEEWTVHSQEATTSAWSPSFLPALEMGELTTPSRKRNSSGPDLSWLHFYRTAASSPLLDLSSSSESTEKLNNSTGLQSSSVSQTKTMHVATVFTDGGPRTLRSLTVSLGPVSKTEGFPKDSRIATTSSSVLLSPSAVESRRNSRVTGNPGDEEFIEPSTENEFGLTSLRWQNDSPTFGEHQLASSSEVQNGSPMSQTETVSRSVAPMRGGEITAHWLLTNSTTSADVTGSSASYPEGVNASVLTQFSDSTVQSGGSHTALGDRSYSESSSTSSSESLNSSAPRGERSIAGISYGQVRGTAIEQRTSSDHTDHTYLSSTFTKGERALLSITDNSSSSDIVESSTSYIKISNSSHSEYSSFFHAQTERSNISSYDGEYAQPSTESPVLHTSNLPSYTPTINMPNTSVVLDTDAEFVSDSSSSSSSSSSSSSSGPPLPLPSVSQSHHLFSSILPSTRASVHLLKSTSDASTPWSSSPSPLPVSLTTSTSAPLSVSQTTLPQSSSTPVLPRARETPVTSFQTSTMTSFMTMLHSSQTADLKSQSTPHQEKVITESKSPSLVSLPTESTKAVTTNSPLPPSLTESSTEQTLPATSTNLAQMSPTFTTTILKTSQPLMTTPGTLSSTASLVTGPIAVQTTAGKQLSLTHPEILVPQISTEGGISTERNRVIVDATTGLIPLTSVPTSAKEMTTKLGVTAEYSPASRSLGTSPSPQTTVVSTAEDLAPKSATFAVQSSTQSPTTVSSSASVNSCAVNPCLHNGECVADNTSRGYHCRCPPSWQGDDCSVDVNECLSNPCPSTAMCNNTQGSFICKCPVGYQLEKGICNLVRTFVTEFKLKRTFLNTTVEKHSDLQEVENEITKTLNMCFSALPSYIRSTVHASRESNAVVISLQTTFSLASNVTLFDLADRMQKCVNSCKSSAEVCQLLGSQRRIFRAGSLCKRKSPECDKDTSICTDLDGVALCQCKSGYFQFNKMDHSCRACEDGYRLENETCMSCPFGLGGLNCGNPYQLITVVIAAAGGGLLLILGIALIVTCCRKNKNDISKLIFKSGDFQMSPYAEYPKNPRSQEWGREAIEMHENGSTKNLLQMTDVYYSPTSVRNPELERNGLYPAYTGLPGSRHSCIFPGQYNPSFISDESRRRDYF [HEG1]
- solubility change mitosis (log2) (HeLa Kyoto [1]): -0.0254
- solubility in G1/S (log2) (HeLa Kyoto [2]): -0.231
- thermal stability score (HeLa Kyoto [3]; [4]): -0.763
- thermal stability score (HeLa Kyoto [3]; cell cycle stage: mitosis): -1.15
